Results reported in article PMC8211822, “CRISPR-Associated Primase-Polymerases are implicated in prokaryotic CRISPR-Cas adaptation” (Nature Communications, 2021).

Tests used:
[1] = target: the molecule itself; test: SEC; MpCAPP-MBP on Superdex 200 10/300
[2] = target: T1, MpAgo, recombinant purified (Marinitoga piezophila, UniProt H2J4R4 1-639); test: pull-down; bait MpCAPP-MBP (20 µg) pre-bound to amylose resin and washed; one prey protein (20 µg) added in 200 µl; 25 mM HEPES pH 7.5, 100 mM NaCl, 50 mM KCl, 3 mM MgCl2, 5% glycerol, 0.5 mM TCEP, 0.1% IGEPAL CA-630; 4 °C, 45 min; Coomassie-stained SDS-PAGE; conditions: both partners purified
T1 construct: Argonaute, Marinitoga piezophila, expressed from pET-6His-MBP-MpAgo (Addgene, number not given); His-MBP tag removed with HRV 3C protease; source: E. coli BL21(DE3)pLysS, purified (CoHis resin, tag removal, heparin, Superdex 200)
T1 sequence (looked up): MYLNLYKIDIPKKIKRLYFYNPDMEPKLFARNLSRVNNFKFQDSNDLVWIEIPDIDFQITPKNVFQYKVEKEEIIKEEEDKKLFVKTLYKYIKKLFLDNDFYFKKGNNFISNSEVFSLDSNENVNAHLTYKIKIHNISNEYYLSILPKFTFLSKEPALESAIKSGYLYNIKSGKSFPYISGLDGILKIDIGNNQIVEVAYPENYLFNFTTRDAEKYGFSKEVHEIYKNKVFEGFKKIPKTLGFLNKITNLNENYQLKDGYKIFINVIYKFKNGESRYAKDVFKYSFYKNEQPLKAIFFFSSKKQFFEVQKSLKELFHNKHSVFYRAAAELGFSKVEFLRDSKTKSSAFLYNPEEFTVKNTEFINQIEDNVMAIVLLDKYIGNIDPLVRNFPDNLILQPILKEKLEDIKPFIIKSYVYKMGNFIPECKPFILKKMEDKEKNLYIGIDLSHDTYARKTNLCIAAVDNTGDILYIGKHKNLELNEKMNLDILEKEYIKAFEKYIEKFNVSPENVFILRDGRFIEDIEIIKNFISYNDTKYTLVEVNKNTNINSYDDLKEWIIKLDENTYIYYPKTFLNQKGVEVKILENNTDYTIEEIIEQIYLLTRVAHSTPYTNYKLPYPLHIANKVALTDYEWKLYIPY

binding result [2]: binds
B1: MpCAPP with C-terminal MBP fusion (MpCAPP-MBP), recombinant (enzyme, Marinitoga piezophila, UniProt H2J4R1 1-546, looked up)
chain: MNFKELAFKAEEDFDFEKAIEYYKKAFNELTINDDSLIRYANLLFDFQKFEEAEPIFEKIVSEINDSEYMSKLAIIYEENNKFEKALKIYKELGIESKVKELSDKIELKAPSQNAIKRFMTLFSGREDVFSIQYEGGYRPIRRPLNFHDIKDHFSGKKTLGIYLLKKNDTVKFAAYDIDIKKHYLNREDKFVYEENSKKVAKRLSRELNLENIIHYFEFTGNRGYHIWIFFDIPVSAYKIKYIMEKILDRIELEEGIDVEIFPKQTSLNGGLGNLIKVPLGVHKKTGKKCLFVDNDFNVIENQIEFLNNIKENKATEIDKLFREIFNENDYDDFNVTYKKRTTSSKNSASKKIKSSIRKTLPKSNKNIFTQMIEGCHILKQINEKIEKEAYITEEEEMIFIKSLANLENSKKFIEMKLSQTINFSKKRIDMIIKQSLGVPITCEEIRKIILNKDISLSLENCTCKFQGNYNSPYAIVENIEEMFLDKIDINDIAKKIVEKNAEKFEIEKEIKNLKRMIAKKMGDSKELRTEIGTIKRFGDDIEIIL
notes: MpCAPP, Marinitoga piezophila, Marpi_0402 / WP_014295918.1; the MBP fusion has a size of ~108 kDa; Codon-optimised gene in Supplementary Note 4; cloning details in Supplementary Data 3; also called MpCAPP WT; CAPP WT (C-terminal MBP); source: E. coli BL21 (DE3), purified (cobalt NTA, amylose resin); not shown: MBP, C-terminal, kept
binding result [1]: binds
